# Source: patent JP2013532970A, “追加のジスルフィド結合を含有するヒトインスリン” (ノヴォ ノルディスク アー/エス, priority 2010, dated 2011)
# Assay: Thioflavin T (ThT) fibrillation assay
# Format: physicochemical
# Details: 7 mM sodium phosphate pH 7.4, 1 μM ThT, 37℃, orbital shaking 960 rpm
Substance,ThT fibrillation lag time,Fibrillation within the 45-hour experiment (ThT fluorescence) (45 h)
"ヒトインスリン: Human insulin hormone (prior art), 21-residue A chain and 30-residue B chain; used as the reference",< 2 時間,–
"A10C, B4C, desB30ヒトインスリン [実施例4]",–,細線維化しなかった
